Source: US20020034770A1, “COMPOUNDS THAT INTERFERE WITH DNA REPLICATION IN RAPIDLY PRO[…] FOR USE IN CANCER THERAPY AND METHODS FOR SCREENING FOR SUCH COMPOUNDS” (priority 1996, published 2002)

Target: T1, Cdc6-associated kinase (Clb/Cdk1 kinases) (Saccharomyces cerevisiae, UniProt P00546)
T1 construct: 1 mg of protein extract from K4527, grown in YEPR at 25° C. or induced for 4 hours in YEPRG, was immunoprecipitated with 12CA5 Ab; endogenous in cells; host or cells: S. cerevisiae strain K4527 (W303 background, wild type, 5 copies of GAL-HA3CDC6); The kinase is endogenous; Only the Cdc6 bait is expressed from an introduced construct
Assay: Histone H1 kinase assay of Cdc6-associated kinase immunoprecipitated with 12CA5 Ab
Assay type: biochemical
Settings: HA3Cdc6 immunoprecipitate from K4527 extract (GAL-HA3CDC6, induced 4 hours in YEPRG); FIG. 5D
Protocol: Protein extracts were prepared as in Schwob et al., 1994. For Clb2 kinase assays, […] of total proteins were immunoprecipitated using anti-Clb2 Ab (1:30, Amon et al., 1992). To assay Cdc6-associated kinase, HA3Cdc6 or Cdc6HA3 was immunoprecipitated with 12CA5 Ab (1:10) from the amounts of protein extracts indicated in figure legends. Histone Hi kinase activity was measured as previously described (Schwob et al., 1994).
D) Cdc6-associated kinase is inhibited by p40^SIC1. 1 mg of protein extract from K4527, grown in YEPR at 25° C. or induced for 4 hours in YEPRG, was immunoprecipitated with 12CA5 Ab and before the last washing step split into four aliquots. Kinase activity was measured in the absence or in the presence of the indicated amounts of purified p40^SIC1. R:Raffinose. G: Galactose. The addition of p40^SIC1 causes the appearance of two additional signals probably due to phosphorylation of p40^SIC1 by an aspecific kinase. E) Cdc28p co-immunoprecipitates with Cdc6p. Cdc6p was immunoprecipitated with 12CA5 Ab from protein extracts (5 mg) of K4527 cells grown at 25° C. in YEPR and induced for 4 hours in YEPRG. Protein A-Sepharose beads were boiled in SDS buffer and analysed by Western blot using Cdc28 Ab (1:500) ([…]. R: Raffinose. G: Galactose).

T1 sequence (P00546 whole entry): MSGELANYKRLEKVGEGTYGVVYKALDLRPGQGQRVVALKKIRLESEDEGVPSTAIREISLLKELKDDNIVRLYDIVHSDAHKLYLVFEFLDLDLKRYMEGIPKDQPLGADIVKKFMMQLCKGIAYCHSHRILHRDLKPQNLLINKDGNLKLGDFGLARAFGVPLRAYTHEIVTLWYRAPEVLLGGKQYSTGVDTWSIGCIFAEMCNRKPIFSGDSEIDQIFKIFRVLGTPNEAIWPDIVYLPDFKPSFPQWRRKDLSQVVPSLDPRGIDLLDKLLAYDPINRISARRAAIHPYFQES

B1: p40^SIC1: purified Clb-specific Cdk inhibitor protein of budding yeast, encoded by SIC1 (protein, UniProt P38634 1-284, looked up)
Protein SIC1: MTPSTPPRSRGTRYLAQPSGNTSSSALMQGQKTPQKPSQNLVPVTPSTTKSFKNAPLLAPPNSNMGMTSPFNGLTSPQRSPFPKSSVKRTLFQFESHDNGTVREEQEPLGRVNRILFPTQQNVDIDAAEEEEEGEVLLPPSRPTSARQLHLSLERDEFDQTHRKKIIKDVPGTPSDKVITFELAKNWNNNSPKNDARSQESEDEEDIIINPVRVGKNPFASDELVTQEIRNERKRAMLRENPDIEDVITYVNKKGEVVEKRRLTDEEKRRFKPKALFQSRDQEH
For B1, the “Cdc6-associated histone H1 kinase activity on addition of purified p40^SIC1” value was “inhibited”.
